The record followed here is paper PMC11574045, “A cofactor-induced repressive type of transcription factor condensation can be induced by synthetic peptides to suppress tumorigenesis” (The EMBO Journal, 2024).

B1: ZNF800 (protein, UniProt Q2TB10 1-664, looked up)
Zinc finger protein 800: MPLRDKYCQTDHHHHGCCEPVYILEPGDPPLLQQPLQTSKSGIQQIIECFRSGTKQLKHILLKDVDTIFECKLCRSLFRGLPNLITHKKFYCPPSLQMDDNLPDVNDKQSQAINDLLEAIYPSVDKREYIIKLEPIETNQNAVFQYISRTDNPIEVTESSSTPEQTEVQIQETSTEQSKTVPVTDTEVETVEPPPVEIVTDEVAPTSDEQPQESQADLETSDNSDFGHQLICCLCRKEFNSRRGVRRHIRKVHKKKMEELKKYIETRKNPNQSSKGRSKNVLVPLSRSCPVCCKSFATKANVRRHFDEVHRGLRRDSITPDIATKPGQPLFLDSISPKKSFKTRKQKSSSKAEYNLTACKCLLCKRKYSSQIMLKRHMQIVHKITLSGTNSKREKGPNNTANSSEIKVKVEPADSVESSPPSITHSPQNELKGTNHSNEKKNTPAAQKNKVKQDSESPKSTSPSAAGGQQKTRKPKLSAGFDFKQLYCKLCKRQFTSKQNLTKHIELHTDGNNIYVKFYKCPLCTYETRRKRDVIRHITVVHKKSSRYLGKITASLEIRAIKKPIDFVLNKVAKRGPSRDEAKHSDSKHDGTSNSPSKKYEVADVGIEVKVTKNFSLHRCNKCGKAFAKKTYLEHHKKTHKANASNSPEGNKTKGRSTRSKALV
B2: ZPF91 (protein, UniProt Q96JP5 2-570, looked up)
E3 ubiquitin-protein ligase …: PGETEEPRPPEQQDQEGGEAAKAAPEEPQQRPPEAVAAAPAGTTSSRVLRGGRDRGRAAAAAAAAAVSRRRKAEYPRRRRSSPSARPPDVPGQQPQAAKSPSPVQGKKSPRLLCIEKVTTDKDPKEEKEEEDDSALPQEVSIAASRPSRGWRSSRTSVSRHRDTENTRSSRSKTGSLQLICKSEPNTDQLDYDVGEEHQSPGGISSEEEEEEEEEMLISEEEIPFKDDPRDETYKPHLERETPKPRRKSGKVKEEKEKKEIKVEVEVEVKEEENEIREDEEPPRKRGRRRKDDKSPRLPKRRKKPPIQYVRCEMEGCGTVLAHPRYLQHHIKYQHLLKKKYVCPHPSCGRLFRLQKQLLRHAKHHTDQRDYICEYCARAFKSSHNLAVHRMIHTGEKPLQCEICGFTCRQKASLNWHMKKHDADSFYQFSCNICGKKFEKKDSVVAHKAKSHPEVLIAEALAANAGALITSTDILGTNPESLTQPSDGQGLPLLPEPLGNSTSGECLLLEAEGMSKSYCSGTERVSLMADGKIFVGSGSSGGTEGLVMNSDILGATTEVLIEDSDSAGP
B3: ZSCAN10 (protein, UniProt Q96SZ4 1-780, looked up)
Zinc finger and SCAN …: MLGESVPAAVEQEQLGEVKLEEEEAVSPEDPRRPESRLRPEVAHQLFRCFQYQEDMGPRASLSRLRELCGHWLRPALHTKKQILELLVLEQFLSVLPPHLLGRLQGQPLRDGEEVVLLLEGIHREPSHAGPLDFSCNAGKSCPRADVTLEEKGCASQVPSHSPKKELPAEEPSVLGPSDEPPRPQPRAAQPAEPGQWRLPPSSKQPLSPGPQKTFQALQESSPQGPSPWPEESSRDQELAAVLECLTFEDVPENKAWPAHPLGFGSRTPDKEEFKQEEPKGAAWPTPILAESQADSPGVPGEPCAQSLGRGAAASGPGEDGSLLGSSEILEVKVAEGVPEPNPELQFICADCGVSFPQLSRLKAHQLRSHPAGRSFLCLCCGKSFGRSSILKLHMRTHTDERPHACHLCGHRFRQSSHLSKHLLTHSSEPAFLCAECGRGFQRRASLVQHLLAHAQDQKPPCAPESKAEAPPLTDVLCSHCGQSFQRRSSLKRHLRIHARDKDRRSSEGSGSRRRDSDRRPFVCSDCGKAFRRSEHLVAHRRVHTGERPFSCQACGRSFTQSSQLVSHQRVHTGEKPYACPQCGKRFVRRASLARHLLTHGGPRPHHCTQCGKSFGQTQDLARHQRSHTGEKPCRCSECGEGFSQSAHLARHQRIHTGEKPHACDTCGHRFRNSSNLARHRRSHTGERPYSCQTCGRSFRRNAHLRRHLATHAEPGQEQAEPPQECVECGKSFSRSCNLLRHLLVHTGARPYSCTQCGRSFSRNSHLLRHLRTHARETLY
B4: ZNF770 (protein, UniProt Q6IQ21 1-691, looked up)
Zinc finger protein 770: MMAENNLKMLKIQQCVVANKLPRNRPYVCNICFKHFETPSKLARHYLIHTGQKPFECDVCHKTFRQLVHLERHQLTHSLPFKCSICQRHFKNLKTFVKHQQLHNETYQNNVKQVRRLLEAKQEKSMYGVYNTFTTEERWALHPCSKSDPMYSMKRRKNIHACTICGKMFPSQSKLDRHVLIHTGQRPFKCVLCTKSFRQSTHLKIHQLTHSEERPFQCCFCQKGFKIQSKLLKHKQIHTRNKAFRALLLKKRRTESRPLPNKLNANQGGFENGEIGESEENNPLDVHSIYIVPFQCPKCEKCFESEQILNEHSCFAARSGKIPSRFKRSYNYKTIVKKILAKLKRARSKKLDNFQSEKKVFKKSFLRNCDLISGEQSSEQTQRTFVGSLGKHGTYKTIGNRKKKTLTLPFSWQNMGKNLKGILTTENILSIDNSVNKKDLSICGSSGEEFFNNCEVLQCGFSVPRENIRTRHKICPCDKCEKVFPSISKLKRHYLIHTGQRPFGCNICGKSFRQSAHLKRHEQTHNEKSPYASLCQVEFGNFNNLSNHSGNNVNYNASQQCQAPGVQKYEVSESDQMSGVKAESQDFIPGSTGQPCLPNVLLESEQSNPFCSYSEHQEKNDVFLYRCSVCAKSFRSPSKLERHYLIHAGQKPFECSVCGKTFRQAPHWKRHQLTHFKERPQGKVVALDSVM
B5: CDKN2C (protein, UniProt P42773 1-168, looked up)
Cyclin-dependent kinase 4 …: MAEPWGNELASAAARGDLEQLTSLLQNNVNVNAQNGFGRTALQVMKLGNPEIARRLLLRGANPDLKDRTGFAVIHDAARAGFLDTLQTLLEFQADVNIEDNEGNLPLHLAAKEGHLRVVEFLVKHTASNVGHRNHKGDTACDLARLYGRNEVVSLMQANGAGGATNLQ
B6: CDX1 (protein, UniProt P47902 1-265, looked up)
Homeobox protein CDX-1: MYVGYVLDKDSPVYPGPARPASLGLGPQAYGPPAPPPAPPQYPDFSSYSHVEPAPAPPTAWGAPFPAPKDDWAAAYGPGPAAPAASPASLAFGPPPDFSPVPAPPGPGPGLLAQPLGGPGTPSSPGAQRPTPYEWMRRSVAAGGGGGSGKTRTKDKYRVVYTDHQRLELEKEFHYSRYITIRRKSELAANLGLTERQVKIWFQNRRAKERKVNKKKQQQQQPPQPPMAHDITATPAGPSLGGLCPSNTSLLATSSPMPVKEEFLP
B7: ZNF791 (protein, UniProt Q3KP31 1-576, looked up)
Zinc finger protein 791: MDSVAFEDVSVSFSQEEWALLAPSQKKLYRDVMQETFKNLASIGEKWEDPNVEDQHKNQGRNLRSHTGERLCEGKEGSQCAENFSPNLSVTKKTAGVKPYECTICGKAFMRLSSLTRHMRSHTGYELFEKPYKCKECEKAFSYLKSFQRHERSHTGEKPYKCKQCGKTFIYHQPFQRHERTHIGEKPYECKQCGKALSCSSSLRVHERIHTGEKPYECKQCGKAFSCSSSIRVHERTHTGEKPYACKECGKAFISHTSVLTHMITHNGDRPYKCKECGKAFIFPSFLRVHERIHTGEKPYKCKQCGKAFRCSTSIQIHERIHTGEKPYKCKECGKSFSARPAFRVHVRVHTGEKPYKCKECGKAFSRISYFRIHERTHTGEKPYECKKCGKTFNYPLDLKIHKRNHTGEKPYECKECAKTFISLENFRRHMITHTGDGPYKCRDCGKVFIFPSALRTHERTHTGEKPYECKQCGKAFSCSSYIRIHKRTHTGEKPYECKECGKAFIYPTSFQGHMRMHTGEKPYKCKECGKAFSLHSSFQRHTRIHNYEKPLECKQCGKAFSVSTSLKKHMRMHNR
B8: ZSCAN1 (protein, UniProt Q8NBB4 1-408, looked up)
Zinc finger and SCAN …: MLPRPKAPASPRRPQTPTPSEQDADPGPASPRDTEAQRLRFRQFQYHVASGPHLALGQLWTLCRQWLRPEARSKEQMLELLVLEQFLGALPSKMRTWVQSQGPRSCREAASLVEDLTQMCQQEVLVSLDSVEPQDWSFGEEEDGKSPRSQKEPSQASELILDAVAAAPALPEESEWLETTQLQQSLHTRAEAEAPRAPGLLGSRARLPLKPSIWDEPEDLLAGPSSDLRAEGTVISSPKGPSAQRISPRRRNRNTDQSGRHQPSLKHTKGGTQEAVAGISVVPRGPRGGRPFQCADCGMVFTWVTHFIEHQKTHREEGPFPCPECGKVFLHNSVLTEHGKIHLLEPPRKKAPRSKGPRESVPPRDGAQGPVAPRSPKRPFQCSVCGKAFPWMVHLIDHQKLHTAHGHM
B9: ZNF671 (protein, UniProt Q8TAW3 1-534, looked up)
Zinc finger protein 671: MLSPVSRDASDALQGRKCLRPRSRRLPLPAAVRAHGPMAELTDSARGCVVFEDVFVYFSREEWELLDDAQRLLYHDVMLENFALLASLGIAFSRSRAVMKLERGEEPWVYDQVDMTSATEREAQRGLRPGCWHGVEDEEVSSEQSIFVAGVSEVRTLMAELESHPCDICGPILKDTLHLAKYHGGKARQKPYLCGACGKQFWFSTDFDQHQNQPNGGKLFPRKEGRDSVKSCRVHVPEKTLTCGKGRRDFSATSGLLQHQASLSSMKPHKSTKLVSGFLMGQRYHRCGECGKAFTRKDTLARHQRIHTGERPYECNECGKFFSQSYDLFKHQTVHTGERPYECSECGKFFRQISGLIEHRRVHTGERLYQCGKCGKFFSSKSNLIRHQEVHTGARPYVCSECGKEFSRKHTLVLHQRTHTGERPYECSECGKAFSQSSHLNVHWRIHSSDYECSRCGKAFSCISKLIQHQKVHSGEKPYECSKCGKAFTQRPNLIRHWKVHTGERPYVCSECGREFIRKQTLVLHQRVHAGEKL
B10: CDX2 (protein, UniProt Q99626 1-313, looked up)
Homeobox protein CDX-2: MYVSYLLDKDVSMYPSSVRHSGGLNLAPQNFVSPPQYPDYGGYHVAAAAAAAANLDSAQSPGPSWPAAYGAPLREDWNGYAPGGAAAAANAVAHGLNGGSPAAAMGYSSPADYHPHHHPHHHPHHPAAAPSCASGLLQTLNPGPPGPAATAAAEQLSPGGQRRNLCEWMRKPAQQSLGSQVKTRTKDKYRVVYTDHQRLELEKEFHYSRYITIRRKAELAATLGLSERQVKIWFQNRRAKERKINKKKLQQQQQQQPPQPPPPPPQPPQPQPGPLRSVPEPLSPVSSLQASVPGSVPGVLGPTGGVLNPTVTQ

The test system of the assay is HEK293FT cells transfected with TF library. Nature of the assay: Screening of TF condensates based on fluorescent puncta. In kind it is cell-based. As to conditions: Figure 1B numerical data; TF library screen, one value per transcriptional factor. The essentials: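 Condensate formation is scored as Alexa 488-labelled puncta after Flag- or GAL4-tag immunostaining of fixed HEK293FT cells expressing individual TFs, with a 12 h glucose-free or glucose-containing culture preceding fixation.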
As to B1, the “Z score of condensed fraction” value worked out at 3.058.

Consider B2, for which the “Z score of condensed fraction” value is on record as -0.03316.

As to B3, the “Z score of condensed fraction” value is on record as -0.1901.

For B4, the “Z score of condensed fraction” value is -0.4682.

Take B5: the “Z score of condensed fraction” value is listed as -0.5488.

Turning to B6, the “Z score of condensed fraction” value came to 2.938.

Consider B7, for which the “Z score of condensed fraction” value is -0.6142.

Regarding B8, the “Z score of condensed fraction” value is 1.179.

For the molecule B9, the “Z score of condensed fraction” value is recorded as -0.9445.

Consider B10, for which the “Z score of condensed fraction” value is -0.211.
